From PMC10557868, “Piperacetazine Directly Binds to the PAX3::FOXO1 Fusion Protein and Inhibits Its Transcriptional Activity”

B1: EWS::FLI1-specific oligonucleotide (GGAA repeats) (dsDNA)
DNA 1: ACCGGAAGGAAGGAAGGAAGGAAGGAAGGAAGTG
DNA 2: CACTTCCTTCCTTCCTTCCTTCCTTCCTTCCGGT
B2: PAX3::FOXO1-specific oligonucleotide (dsDNA)
DNA 1: ACCGTGACTAATTTAATTAGTCACG
DNA 2: CGTGACTAATTAAATTAGTCACGGT

Legend:
[1] = target: T1, PAX3::FOXO1 fusion protein (UniProt P23760 1-391+Q12778:211-655, internal_change); experiment: SPR; DNA 1.25-80 nM; SPR, Biacore T-200, CM5 chip; PBS-P (20 mM phosphate pH 7.4, 137 mM NaCl, 2.7 mM KCl, 0.05% P20) stated as immobilization running buffer, with 5% DMSO for small molecules; temperature not stated; settings: protein: recombinant; tags: C-terminal 12xHis; N-terminal internal HA tag; blunt
[2] = target: T1, PAX3::FOXO1 fusion protein; experiment: SPR; SPR, Biacore T-200, CM5 chip; PBS-P (20 mM phosphate pH 7.4, 137 mM NaCl, 2.7 mM KCl, 0.05% P20) stated as immobilization running buffer, with 5% DMSO for small molecules; temperature not stated; settings: protein: recombinant; tags: C-terminal 12xHis; N-terminal internal HA tag; blunt

T1 sequence (P23760 other isoform, or with tags, fused parts or gaps): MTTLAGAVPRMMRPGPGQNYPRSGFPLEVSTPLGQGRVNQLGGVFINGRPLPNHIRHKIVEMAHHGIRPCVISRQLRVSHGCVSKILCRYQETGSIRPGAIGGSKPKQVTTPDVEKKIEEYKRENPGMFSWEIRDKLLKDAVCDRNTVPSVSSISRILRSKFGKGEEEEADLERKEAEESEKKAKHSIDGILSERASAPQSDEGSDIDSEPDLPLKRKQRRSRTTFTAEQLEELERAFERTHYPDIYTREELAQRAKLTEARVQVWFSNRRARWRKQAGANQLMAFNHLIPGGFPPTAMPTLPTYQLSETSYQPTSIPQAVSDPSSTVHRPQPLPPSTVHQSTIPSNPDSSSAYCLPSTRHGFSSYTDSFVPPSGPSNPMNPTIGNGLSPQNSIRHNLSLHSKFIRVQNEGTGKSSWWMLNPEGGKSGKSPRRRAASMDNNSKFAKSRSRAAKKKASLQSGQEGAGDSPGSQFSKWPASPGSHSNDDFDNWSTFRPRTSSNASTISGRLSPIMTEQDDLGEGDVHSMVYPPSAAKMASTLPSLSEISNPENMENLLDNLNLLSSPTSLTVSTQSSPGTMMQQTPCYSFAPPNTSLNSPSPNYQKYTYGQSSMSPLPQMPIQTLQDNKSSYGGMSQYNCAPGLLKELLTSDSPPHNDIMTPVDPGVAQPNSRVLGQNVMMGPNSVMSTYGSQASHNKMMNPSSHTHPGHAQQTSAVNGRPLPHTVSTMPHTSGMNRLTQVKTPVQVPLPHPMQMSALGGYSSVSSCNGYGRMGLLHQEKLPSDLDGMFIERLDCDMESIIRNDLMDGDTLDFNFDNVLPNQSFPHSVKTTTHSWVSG

| Binder | binding result [1] | Kd [2] |
| --- | --- | --- |
| B1 | no binding | – |
| B2 | – | 6.3 nM |
